In publication PMC3593993 one finds fold of the interaction (α-galactosidase activity) against Go1αQ205L data, which are given here for 1 substance.

The test deals with constitutively active Go2α (Go2αQ205L), Gal4 DNA-binding domain fusion (pGBKT7-Go2αQ205L) (UniProt P18872). Kind of test: two-hybrid.

Substance “Girdin prey of the mating and α-galactosidase experiments (pACT2-Girdin) (from UniProt Q5SNZ0 1318-1873) (domain or fragment)” had a fold of the interaction (α-galactosidase activity) against Go1αQ205L of 2.5 fold.
